The record followed here is patent publication US20240279845A1, “METHOD FOR PREPARING A LIBRARY OF PEPTIDES OR A PEPTIDE” (ECOLE POLYTECHNIQUE FEDERALE DE LAUSANNE (EPFL), priority 2021, published 2024).

Data set [1] concerns Cc1cc(=O)oc2cc(NC(=O)[C@H](CCCNC(=N)N)NC(=O)[C@@H]3CCCN3C(=O)[C@@H](NC(=O)OC(C)(C)C)C(C)C)ccc12. As to the kind of experiment: Substrate KM for protease screen, KLK5. The format is biochemical. The note with it: other: KLK5. As to the method: (§1) Crude macrocyclic libraries (4 mM DMSO stocks in 384-well LDV plates were transferred into 1536-well microtiter OptiPlates via ADE. Applied buffered solutions were prepared by filtration through PTFE syringe filters (0.22 μm) and assays were initiated by addition of protease (4.41 μl/well) in appropriate buffer (see list below) supplemented with bovine serum albumin (BSA; 0.1% w/v) and dispensed using a CERTUS automated liquid handler. Plates were incubated for 10 min at ambient temperature before fluorogenic substrate in appropriate buffer (4.5 μl) was added using a CERTUS automated liquid handler. Plates were centrifugated (800 g, 2 min) and fluorescence intensity was measured using a PHERAstar plate reader (excitation 384 nm, emission 440 nm) in time increments of 150 s over 15 min. Slopes of fluorescence increase (m) were calculated with Microsoft Excel (vers. 16.56). Negative controls were prepared without macrocycle. An average of 12 negative controls was used to calculate residual activities using Equation I below: […]
(§2) where [S]0 is the initial substrate concentration and KM is the Michaelis-Menten constant^12 for the enzyme and substrate.

In data set [2] the test system is Cc1cc(=O)oc2cc(NC(=O)[C@H](CCCNC(=N)N)NC(=O)[C@H](Cc3ccccc3)NC(=O)OCc3ccccc3)ccc12. As to the kind of experiment: Substrate KM for protease screen, PKal. The note with it: other: PKal. The format is biochemical. The procedure:
as §1, §2

Chain of PKal (Homo sapiens) (chain, as listed by the source): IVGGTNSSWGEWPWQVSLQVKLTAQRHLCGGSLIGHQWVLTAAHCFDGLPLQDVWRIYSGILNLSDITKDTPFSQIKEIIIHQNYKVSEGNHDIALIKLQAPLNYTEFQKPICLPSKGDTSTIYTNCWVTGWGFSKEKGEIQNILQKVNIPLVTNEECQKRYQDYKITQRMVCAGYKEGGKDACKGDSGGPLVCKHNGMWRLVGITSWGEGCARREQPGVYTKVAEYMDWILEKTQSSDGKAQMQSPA

What is called Km is the substrate concentration at which the rate is half of its maximum. As for KLK5 (Homo sapiens), the Km in data set [1] was determined as 200 ± 10 µM.

Regarding PKal (Homo sapiens), the Km in data set [2] came out at 120 ± 28 µM.
